From PMC8564726 (2021) come the findings set out here.

In assay [1] the target is T1, H3K9me0 peptide (Homo sapiens, unmethylated K9; fluorescein label; H3(1-20) in mature numbering (initiator Met removed)). Nature of the assay: FP; MBP-tagged full-length G9a; lower limit, no saturation.
Assay [2] concerns the target H3K9me1 monomethylated mononucleosome (methyl-lysine analog), 147 bp 601 DNA 5'-fluorescein-labeled (monomethyl-lysine analog (MLA) at K9). Nature of the assay: FP.
For assay [3], the target named is H3K9me2 dimethylated mononucleosome (methyl-lysine analog), 147 bp 601 DNA 5'-fluorescein-labeled (dimethyl-lysine analog (MLA) at K9). Nature of the assay: FP.
Assay [4] addresses T1, H3K9me0 peptide. Nature of the assay: FP; lower limit, no saturation.
Assay [5] addresses unmethylated mononucleosome (H3K9me0), 147 bp 601 DNA 5'-fluorescein-labeled. Nature of the assay: FP.

B1: full-length G9a (enzyme)
chain: MRGLPRGRGLMRARGRGRAAPTGGRGRGRGGAHRGRGRPRSLLSLPRAQASWAPQLPAGLTGPPVPCLPSQGEAPAEMGALLLEKEPRGAAERVHSSLGDTPQSEETLPKANPDSLEPAGPSSPASVTVTVGDEGADTPVGAASLIGDEPESLEGDGGRIVLGHATKSFPSSPSKGGACPSRAKMSMTGAGKSPPSVQSLAMRLLSMPGAQGAATAGPEPSPATTAAQEGQPKVHRARKTMSKPSNGQPPIPEKRPPEVQHFRMSDDMHLGKVTSDVAKRRKLNSGSLSEDLGSAGGSGDIILEKGEPRPLEEWETVVGDDFSLYYDAYSVDERVDSDSKSEVEALAEQLSEEEEEEEEEEEEEEEEEEEEEEEEEDEESGNQSDRSGSSGRRKAKKKWRKDSPWVKPSRKRRKREPPRAKEPRGVNGVGSSGPSEYMEVPLGSLELPSEGTLSPNHAGVSNDTSSLETERGFEELPLCSCRMEAPKIDRISERAGHKCMATESVDGELLGCNAAILKRETMRPSSRVALMVLCEAHRARMVKHHCCPGCGYFCTAGTFLECHPDFRVAHRFHKACVSQLNGMVFCPHCGEDASEAQEVTIPRGDGGTPPIGTAAPALPPLAHDAPGRADTSQPSARMRGHGEPRRPPCDPLADTIDSSGPSLTLPNGGCLSAVGLPPGPGREALEKALVIQESERRKKLRFHPRQLYLSVKQGELQKVILMLLDNLDPNFQSDQQSKRTPLHAAAQKGSVEICHVLLQAGANINAVDKQQRTPLMEAVVNNHLEVARYMVQLGGCVYSKEEDGSTCLHHAAKIGNLEMVSLLLSTGQVDVNAQDSGGWTPIIWAAEHKHIDVIRMLLTRGADVTLTDNEENICLHWASFTGSAAIAEVLLNAQCDLHAVNYHGDTPLHIAARESYHDCVLLFLSRGANPELRNKEGDTAWDLTPERSDVWFALQLNRKLRLGVGNRAVRTEKIICRDVARGYENVPIPCVNGVDGEPCPEDYKYISENCETSTMNIDRNITHLQHCTCVDDCSSSNCLCGQLSIRCWYDKDGRLLQEFNKIEPPLIFECNQACSCWRSCKNRVVQSGIKVRLQLYRTAKMGWGVRALQTIPQGTFICEYVGELISDAEADVREDDSYLFDLDNKDGEVYCIDARYYGNISRFINHLCDPNIIPVRVFMLHQDLRFPRIAFFSSRDIRTGEELGFDYGDRFWDIKSKYFTCQCGSEKCKHSAEAIALEQSRLARLDPHPELLPDLSSLPPINT
The Kd is a measure of binding affinity in units of concentration. Read a low Kd as tighter binding. Turning to B1, the Kd with H3K9me0 peptide [1] is more than 66 µM.

B2: G9a ANK-SET homodimer (complex)
chain: DAPGRADTSQPSARMRGHGEPRRPPCDPLADTIDSSGPSLTLPNGGCLSAVGLPPGPGREALEKALVIQESERRKKLRFHPRQLYLSVKQGELQKVILMLLDNLDPNFQSDQQSKRTPLHAAAQKGSVEICHVLLQAGANINAVDKQQRTPLMEAVVNNHLEVARYMVQLGGCVYSKEEDGSTCLHHAAKIGNLEMVSLLLSTGQVDVNAQDSGGWTPIIWAAEHKHIDVIRMLLTRGADVTLTDNEENICLHWASFTGSAAIAEVLLNAQCDLHAVNYHGDTPLHIAARESYHDCVLLFLSRGANPELRNKEGDTAWDLTPERSDVWFALQLNRKLRLGVGNRAVRTEKIICRDVARGYENVPIPCVNGVDGEPCPEDYKYISENCETSTMNIDRNITHLQHCTCVDDCSSSNCLCGQLSIRCWYDKDGRLLQEFNKIEPPLIFECNQACSCWRSCKNRVVQSGIKVRLQLYRTAKMGWGVRALQTIPQGTFICEYVGELISDAEADVREDDSYLFDLDNKDGEVYCIDARYYGNISRFINHLCDPNIIPVRVFMLHQDLRFPRIAFFSSRDIRTGEELGFDYGDRFWDIKSKYFTCQCGSEKCKHSAEAIALEQSRLARLDPHPELLPDLSSLPPINT
In the case of B2, the Kd was 14.8 µM in assay [2], 18.4 µM in assay [3] and more than 100 µM in the assay with H3K9me0 peptide [4].

B3: G9a-GLP ANK-SET heterodimer (complex)
chain 1: B2 chain
chain 2: QEKSLAAEGRADTTTGSIAGAPEDERSQSTAPQAPECFDPAGPAGLVRPTSGLSQGPGKETLESALIALDSEKPKKLRFHPKQLYFSARQGELQKVLLMLVDGIDPNFKMEHQSKRSPLHAAAEAGHVDICHMLVQAGANIDTCSEDQRTPLMEAAENNHLDAVKYLIKAGAQVDPKDAEGSTCLHLAAKKGHYDVVQYLLSNGQMDVNCQDDGGWTPMIWATEYKHVELVKLLLSKGSDINIRDNEENICLHWAAFSGCVDIAEILLAAKCDLHAVNIHGDSPLHIAARENRYDCVVLFLSRDSDVTLKNKEGETPLQCASLSSQVWSALQMSKALRDSAPDKPVAVEKTVSRDIARGYERIPIPCVNAVDSELCPTNYKYVSQNCVTSPMNIDRNITHLQYCVCVDDCSSSTCMCGQLSMRCWYDKDGRLLPEFNMAEPPLIFECNHACSCWRNCRNRVVQNGLRARLQLYRTQDMGWGVRSLQDIPLGTFVCEYVGELISDSEADVREEDSYLFDLDNKDGEVYCIDARFYGNVSRFINHHCEPNLVPVRVFMSHQDLRFPRIAFFSTRLIQAGEQLGFDYGERFWDVKGKLFSCRCGSSKCRHSSAALAQRQASAAQEPQENGLPDTSSAAAADPL
As for B3, the Kd turned out to be 2.26 µM in assay [2] and 4.76 µM in assay [3].

B4: GLP ANK-SET homodimer (complex)
chain: B3 chain 2
On to B4, for which binding in assay [2] was characterised by a dissociation constant (Kd) of 5 µM.

B5: G9aS-GLP (protein)
chain 1: AHDAPGRADTSQPSARMRGHGEPRRPPCDPLADTIDSSGPSLTLPNGGCLSAVGLPPGPGREALEKALVIQESERRKKLRFHPRQLYLSVKQGELQKVILMLLDNLDPNFQSDQQSKRTPLHAAAQKGSVEICHVLLQAGANINAVDKQQRTPLMEAVVNNHLEVARYMVQLGGCVYSKEEDGSTCLHHAAKIGNLEMVSLLLSTGQVDVNAQDSGGWTPIIWAAEHKHIDVIRMLLTRGADVTLTDNEENICLHWASFTGSAAIAEVLLNAQCDLHAVNYHGDTPLHIAARESYHDCVLLFLSRGANPELRNKEGDTAWDLTPERSDVWFALQLNRKLRLGVGNRAVRTEKIICRDVARGYENVPIPCVNGVDGEPCPEDYKYISENCETSTMNIDRNITHLQHCTCVDDCSSSNCLCGQLSIRCWYDKDGRLLQEFNKIEPPLIFECNQACSCWRSCKNRVVQSGIKVRLQLYRTAKMGWGVRALQTIPQGTFICEVVGELISDAEADVREDDSYLFDLDNKDGEVYCIDARYYGNISRFINHLCDPNIIPVRVFMLHQDLRFPRIAFFSSRDIRTGEELGFDFGDRFWDIKSKYFTCQCGSEKCKHSAEAIALEQSRLARLDPHPELLPDLSSLPPINT
chain 2: PGQEKSLAAEGRADTTTGSIAGAPEDERSQSTAPQAPECFDPAGPAGLVRPTSGLSQGPGKETLESALIALDSEKPKKLRFHPKQLYFSARQGELQKVLLMLVDGIDPNFKMEHQSKRSPLHAAAEAGHVDICHMLVQAGANIDTCSEDQRTPLMEAAENNHLDAVKYLIKAGAQVDPKDAEGSTCLHLAAKKGHYDVVQYLLSNGQMDVNCQDDGGWTPMIWATEYKHVELVKLLLSKGSDINIRDNEENICLHWAAFSGCVDIAEILLAAKCDLHAVNIHGDSPLHIAARENRYDCVVLFLSRDSDVTLKNKEGETPLQCASLSSQVWSALQMSKALRDSAPDKPVAVEKTVSRDIARGYERIPIPCVNAVDSELCPTNYKYVSQNCVTSPMNIDRNITHLQYCVCVDDCSSSTCMCGQLSMRCWYDKDGRLLPEFNMAEPPLIFECNHACSCWRNCRNRVVQNGLRARLQLYRTQDMGWGVRSLQDIPLGTFVCEYVGELISDSEADVREEDSYLFDLDNKDGEVYCIDARFYGNVSRFINHHCEPNLVPVRVFMSHQDLRFPRIAFFSTRLIQAGEQLGFDYGERFWDVKGKLFSCRCGSSKCRHSSAALAQRQASAAQEPQENGLPDTSSAAAADPL
Consider B5, for which the Kd in assay [5] was more than 70 µM.
